Measurements: patent US20180185504A1 (Regeneron, published 2018)

T1: monkey macaca fascicularis PRLR construct with an HA tag on HEK293/mfPRLR cells (macaca fascicularis, UniProt A0A2K5WXK1 25-619)
T1 construct: stably transfected into HEK293
T1 sequence: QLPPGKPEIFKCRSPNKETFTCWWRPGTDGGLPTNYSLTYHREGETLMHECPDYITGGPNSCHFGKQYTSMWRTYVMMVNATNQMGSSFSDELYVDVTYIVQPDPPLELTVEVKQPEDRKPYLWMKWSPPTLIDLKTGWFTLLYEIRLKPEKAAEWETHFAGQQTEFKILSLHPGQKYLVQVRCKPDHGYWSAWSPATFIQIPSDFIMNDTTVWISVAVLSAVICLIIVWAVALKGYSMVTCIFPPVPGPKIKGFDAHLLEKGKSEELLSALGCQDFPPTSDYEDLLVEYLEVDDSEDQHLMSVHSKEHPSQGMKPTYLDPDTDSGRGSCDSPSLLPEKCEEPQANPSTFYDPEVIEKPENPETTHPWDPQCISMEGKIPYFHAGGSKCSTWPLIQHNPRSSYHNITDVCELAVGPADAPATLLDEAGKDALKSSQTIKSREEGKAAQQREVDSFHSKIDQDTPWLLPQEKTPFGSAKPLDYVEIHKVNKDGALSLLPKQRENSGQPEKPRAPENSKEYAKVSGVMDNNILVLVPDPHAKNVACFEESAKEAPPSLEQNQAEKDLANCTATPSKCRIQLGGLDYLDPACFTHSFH

T2: human PRLR on cells (endogenous on T47D, T47D#11, MCF7); introduced in HEK293/hPRLR/STAT5-Luc, 293/hPRLR, … (human, UniProt P16471 25-622)
T2 construct: no tag is stated for these lines; also called prolactin receptor
T2 sequence: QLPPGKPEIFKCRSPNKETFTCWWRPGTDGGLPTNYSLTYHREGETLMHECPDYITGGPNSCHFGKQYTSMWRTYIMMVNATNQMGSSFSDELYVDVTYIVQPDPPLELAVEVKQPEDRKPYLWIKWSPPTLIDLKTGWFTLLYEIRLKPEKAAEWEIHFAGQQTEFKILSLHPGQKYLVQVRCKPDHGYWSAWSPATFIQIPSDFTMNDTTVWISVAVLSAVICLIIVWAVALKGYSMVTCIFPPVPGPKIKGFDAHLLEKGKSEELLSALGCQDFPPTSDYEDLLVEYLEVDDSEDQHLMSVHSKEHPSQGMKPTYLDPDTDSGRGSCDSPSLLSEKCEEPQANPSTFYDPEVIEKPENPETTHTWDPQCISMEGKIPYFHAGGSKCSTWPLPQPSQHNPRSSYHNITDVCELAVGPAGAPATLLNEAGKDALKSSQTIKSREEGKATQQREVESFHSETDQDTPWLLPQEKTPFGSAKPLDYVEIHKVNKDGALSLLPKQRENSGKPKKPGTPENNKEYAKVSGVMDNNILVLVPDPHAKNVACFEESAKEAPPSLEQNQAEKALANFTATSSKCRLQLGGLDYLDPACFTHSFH

T3: human PRLR construct with an HA tag on HEK293/hPRLR cells (human, UniProt P16471 25-622)
T3 sequence: T2 sequence

B1: H1H6975N (antibody, human IgG1, V domains shown)
VH: EVHLVESGGGLVQPGGSLRLSCAASGFTFSSYEMNWVRQTPGKGLEWISHISSRSVIIYYADSVKGRFTISRDNAKNSLFLQMNSLRAEDTAVYFCAGITIFGIPEYWGQGTLVTVSS
VL: EIVLTQSPATLSLSPGERATLSCRASQSVSSYFAWYQQKPGQAPRLLIYDASSRATGIPTRFSGSGSGTDFTLTISSLEPEDFAVYYCQQRSSWPITFGQGTRLEIK
notes: also called H2M6975N
B2: H1H6800P (antibody, human IgG1, V domains shown)
VH: EVQLVESGGGLVQPGRSLRLSCAASGFTFDGYAMHWVRQGPGKGLEWVSGISWYSDTLGYADSVKGRFTISRDNAKNSLYLQMNSLRTEDTAFYYCAKISSSGWAFDYWGQGTLVTVSS
VL: EIVLTQSPGTLSLSPGERATLSCRASHSVSSAYLAWYQQKPGQTPRLLIYGTSSRATGIPDRFSGSGSGTDFTLTISRLEPEDFAVYYCQQYGSSPLFTFGPGTKVDIK
notes: human IgG1 Fc (H1H)
B3: H1H6803P (antibody, human IgG1, V domains shown)
VH: EVQLVESGGGVVRPGGSLRLSCAASGFKFDDYGMTWVRHVPGKGLEWVSGINWNGGRTGYTDSVKGRFTISRDNAKNSLYLQMNSLRAEDTALYHCAGARRDAFDIWGQGTMVTVSS
VL: DIQMTQSPSSLSASIGDRVTITCRASQNIIKYLNWYQQNAGKAPKLLIYTASSLQSGVPSRFSGSGSGTDFTLTISSLQPEDFATYYCQQSSSSPYTFGQGTKLEIK
notes: human IgG1 Fc (H1H)
B4: H1H6762P (antibody, human IgG1, V domains shown)
VH: QVQLVESGGGVVQPGRSLRLSCAASGFTFSHYGMVWVRQPPGKGLEWVALISFDGTTKYYADSVKGRFTISRDNSKNTLYLQMNSLRAEDTAVYFCVGAIAAAAFDLWGRGTLVTVSS
VL: EIVMTQSPATLSVSPGERATLSCRASQSVSSDLAWYQQKPGQAPRLLIYSASARATGIPARFTGSGSGTDFTLTISSLQSEDFAVYYCQQYNNWPMYTFGQGTKLEIK
notes: human IgG1 Fc (H1H)
B5: H1H6765P (antibody, human IgG1, V domains shown)
VH: EVQLVESGGGVVRPGGSLRLSCVGSGFSFDDHGMNWVRQGPGKGLEWVSGFNWNGGSTNYAESVKGRFTISRDNARNSLFLQMNSLRAEDTALYYCVRGRSGWFNDAFDVWGPGTMVTVSS
VL: EIVLTQSPGTLSLSPGERATLSCRASQTINSNYLAWYRQKPGQTPRLLIYGTSSRATGIPDRFSGSGSGTDFSLTISRLEPEDFAVFYCQQYAGLPTFGPGTKVDIK
notes: human IgG1 Fc (H1H)
B6: H1H6793P (antibody, human IgG1, V domains shown)
VH: EVQLVESGGGLVQPGGSLRLSCAASGFSFSIYAMSWFRQAPGKGLEWVSAINGRGDGTHYADSVKGRFTISRDNSKTTLYLQMSSLRAEDTAVYYCAKPVMSTNGFDIWGQGTMVTVSS
VL: DIQMTQSPSTLSASVGDRVTITCRASQSISSWLAWYQLKPGKAPKLLIYKASNLESGVPSRFSGSGSGTEFTLTISSLQPDDFATYYCQQYNIYWTFGQGTKVEIK
notes: human IgG1 Fc (H1H)
B7: H1H6782P (antibody, human IgG1, V domains shown)
VH: EVQLVESGGGLVQPGRSLRLSCAASGFTFDDYAMHWVRQAPGKGLEWVSGIIWNSGHIGYGDSVKGRFTISRDNAKKSLYLQMNSLRAEDTALYYCARDSGRYQSYFDYWGQGTLVTVSS
VL: DIQMTQSPSTLSASVGDRVTITCRASHIISSWLAWYQQKPGKAPKVLIFKASSLESGVPSRFSGSGSGTEFTLTISSLQPDDFATYYCQQYNTYSRTFGQGTKVEIK
notes: human IgG1 Fc (H1H)
B8: H1H6976N (antibody, human IgG1, V domains shown)
VH: EVQLLESGGGFVQPGGSLRLSCAASGFTFSSYAMSWVRQAPGKGLEWVSIISSNGRYTYYADSVKGRFTISRDNSKNTLYLQMNSLRAEDTAVYYCATVTGDWFDPWGQGTLVTVSS
VL: DIQLTQSPSFLSASVGDRVTITCWASQDIDISLAWYQQKPGKAPKLLIYAASTLQSGVPSKFSGSGSGTDFTLTISSLQPEDFSTYYCQQLNSYPITFGQGTRLDIK
notes: also called H2M6976N
B9: H1H6785P (antibody, human IgG1, V domains shown)
VH: EVQLVESGGGLVQPGGSLRLSCAASGFTFSSYEMNWVRQAPGKGLEWISYISSRGGTIYYADSIKGRFTIYRDNARNSLYLQMNSLRAEDTAIYYCARLSGVDIFDIWGQGTMVTVSS
VL: DIQMTQSPSSLSASVGDRVTITCRASQGISNYLAWYQQKPGKVPKLLIYFASTLQSGVPSRFSGGGSGTDFTLTISSLQPEDVATYYCQRYNSAPLTFGGGTKVEIK
notes: human IgG1 Fc (H1H)
B10: H1H6958N2 (antibody, human IgG1, V domains shown)
VH: QVQLVESGGGVVQPGRSLRLSCGASGFTFRNYGMQWVRQGPGKGLEWVTLISFDGNDKYYADSVKGRFTISRDNSKNTLFLQMNSLRTEDTAVYYCARGGDFDYWGQGTLVTVSS
VL: DIQMTQSPSSLSASVGDRVTITCRASQDIRKDLGWYQQKPGKAPKRLIYAASSLHSGVPSRFSGSGSGTEFTLTISSLQPEDFATYYCLQHNSYPMYTFGQGTKLEIK
notes: also called H2M6958N2

What was measured:
[1] = target: T1, monkey macaca fascicularis PRLR …; assay: FACS on HEK293/mfPRLR cells
[2] = target: T2, human PRLR on cells (endogenous on …); assay: imaging of alexa488 intensity on T47D cells
Procedure: Briefly, 20,000 T47D cells were seeded in collagen coated 96 well plates. […] Cells were then incubated with alexa488 conjugated anti-hFc Fab secondary antibodies for 30 minutes on ice followed by two additional PBS washes. Antibodies were allowed to internalize for 1 h at 37° C. in internalization buffer (PBS+2% FBS) or remained at 4° C. Cells were fixed in 4% formaldehyde, nuclei were stained with DRAQ5 (Cell signaling), and images were acquired on the ImageXpress micro XL (Molecular Devices). Whole cell alexa488 intensity at 37° C. (Binding) and the alexa488 intensity in the intracellular vesicles at 37° C. (Internalization) were determined via Columbus image analysis software (PerkinElmer).

[3] = target: T2, human PRLR on cells (endogenous on …); assay: cell-based or functional assay
[4] = target: T3, human PRLR construct with an HA tag on …; assay: FACS on HEK293/hPRLR cells
[5] = target: T2, human PRLR on cells (endogenous on …); assay: cell-based or functional assay; remark: listed apart in the source

| Binder | FACS Cell Binding (Fold Above Background) [1] [fold] | % Total Binding relative to Control I [2] [%] | IC50 of Blocking 5 nM PRL [M] (STAT5-Luc reporter, HEK293/hPRLR/STAT5-Luc cells) [3] | Percent Blocking at 100 nM Antibody (STAT5-Luc reporter) [3] [%] | FACS Cell Binding (Fold Above Background) [4] [fold] | % Internalization relative to Control I (T47D cells, imaging) [5] [%] |
| --- | --- | --- | --- | --- | --- | --- |
| B1 | 29 | 226 | 2.41e-10 | 100 | 38 | 214 |
| B2 | 29 | 187 | 3.55e-10 | 100 | 35 | 198 |
| B3 | 28 | 206 | 6.27e-10 | 100 | 39 | 190 |
| B4 | 26 | 177 | 2.19e-11 | 100 | 36 | 186 |
| B5 | 27 | 191 | 3.3e-11 | 100 | 38 | 186 |
| B6 | 32 | 178 | – | 65 | 2 | 180 |
| B7 | 32 | 210 | – | 0 | 41 | 179 |
| B8 | 29 | 180 | – | 23 | 8 | 170 |
| B9 | 26 | 168 | 3.45e-10 | 100 | 37 | 169 |
| B10 | 30 | 162 | 1.98e-10 | 100 | 35 | 169 |
